Patent US20250018039A1 (published 2025)

Target: T1, wild-type human RAS (KRAS) peptide on HLA-A*03:01 (human)
T1 peptide: VVVGAGGVGK
Experiment: cytokine release
Method: Cos7 cells transduced with human HLA A*03:01 were independently pulsed with the G12V RAS peptide […] (SEQ ID NO: 33) or the corresponding wild-type peptide […] The transduced cells (effector cells) were co-cultured with the peptide-pulsed target cells. Interferon-gamma secretion was measured.

binding result: no recognition
B1: TCR 807 (TCR, V domains shown)
Valpha: QQKVQQSPESLSVPEGGMASLNCTSSDRNFQYFWWYRQHSGEGPKALMSIFSDGDKKEGRFTAHLNKASLHVSLHIRDSQPSDSALYFCAARPGTQVVGQLTFGRGTRLQVYA
Vbeta: AQTIHQWPVAEIKAVGSPLSLGCTIKGKSSPNLYWYWQATGGTLQQLFYSITVGQVESVVQLNLSASRPKDDQFILSTEKLLLSHSGFYLCAWRDRPSSYEQYFGPGTRLTVL
